Reference: patent publication US20220080036A1 (VANDERBILT UNIVERSITY, published 2022)
Changes are numbered by the printed parent chain.

B1: STAU-402 (antibody, V domains shown)
VH: QLQLQESGPGLVKPSETLSLTCTVSGGSISSSSYYWGWIRQPPGKGLEWIGSIYYSGSTYYNPSLKSRVTISVDTSKNQFSLKLSSVTAADTAVYYCARPNSSGWSYYFDYWGQGTLVTVSS
VL: QSVLTQPPSVSGAPGQRVTISCTGTSSNIGADYDVHWYQQLPGTAPKLLIYGNINRPSGVPDRFSGSRSGTSASLAITGLQADDEADYYCQSYDSSLSGSVVFGGGTKLTVL
B2: STAU-401 (antibody, V domains shown)
VH: QVQLVQSGPEARKPGTSVKVSCKTSGYTFSSYGIAWVRQAPGQGLEWMGWISGYSDYTIYAQRLQGRVSMTTDPYTSTAYMELRSLRPDDTAVYYCATLSFGELVENKLDFWGQGTLVTVSS
VL: B1 VL with D34A, N53T
B3: STAU-218 (antibody, V domains shown)
VH: QVTLKESGPVVVKPTETLTLTCTVSDVSLRNVQMGVSWIRQPPGKALEWLAHIFSHDEKAYVTSLENRLTISRDTSNSQVVLTMTNMDPVDTGTYYCARIRSTSGEEEDPFAFWGQGTLVTVSS
VL: DIQMTQSPSSLSASVGDRVTITCRASQSVTTWLAWYQQKPGKAPKLLIYSASSLESGVPSRFSGSGSGTDFTLTISNLQPDDFATYYCQQYRFYWTFGQGTKVESK
B4: STAU-307 (antibody, V domains shown)
VH: QVQLVQSGAEVKKTGSSVKVSCTASGATFNTNDLMWVRQAPGQGLEWMGGIVPVFGRPKYAKKFHGRLIISADEFTTTFYMELTSLTFDDTAIYYCARSGSTESPIQHIDFWGQGTLVTVSS
VL: SYVLTQPPSVSVAPGQTATITCGGDNIATFSVHWYRQKPGQAPVLVVYDDLDRASGIPARFSGSNSGNTATLTISRVEPGDEADYFCQVWEISSDEYVFGPGTSVTVL
B5: STAU-239 (antibody, V domains shown)
VH: QVQLVQSGAEVKKPGSSVKVSCRASGGPFNTYVITWVRQAPGQGLEWMGGIVPVFNTSHSAQKFQGRVKISADTSTNTVYMELTSLTFEDTAVYFCARDGAAAPLNWYDPWGQGTLVTVSS
VL: SYVLTQPPSVSLAPGQTATLTCGGNNIGSKSVHWYQKKPGQAPVLVVYDVRDRPSGIPERFSGSSSENTATLTLSRVEAEDEADYYCQVWESTTSHVIFGGGTKLTVL
B6: STAU-407 (antibody, V domains shown)
VH: QLQLQESGPGLVKPSETLSLTCSVSGGSISRTYYYWDWIRQPPGKGLEWIGSVYYSGSTYYNPSLKSRVTMSVDTSKNLFSLKLSSVTAADTAVYYCASHESWQQLISWGQGTLVTVSS
VL: QAVLTQPSSLSASPGASASLTCTLRSGINVGIYRIYWYQQKPGSPPQYLLRYKSDSDKHQGSGVPSRFSGSKDASANAGILLISGLQSEDEADYYCMIWHSSAVAFGGGTKLTVL
B7: STAU-221 (antibody, V domains shown)
VH: QVTLRESGPALVKPTQTLTLTCTFSGFSLTSSGMCVSWIRQPPGKALEWLALIDWDDDKYYITSLKTRLIISKDTSKNQVVLTMTNMDPVDTATYYCARTQSGYSGYYVDYWGQGTLVTVSS
VL: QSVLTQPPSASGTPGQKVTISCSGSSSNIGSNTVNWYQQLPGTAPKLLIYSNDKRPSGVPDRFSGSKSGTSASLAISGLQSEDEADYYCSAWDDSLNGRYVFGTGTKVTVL
B8: STAU-201 (antibody, V domains shown)
VH: QVQLVQSGPEVKKPGASVKVSCKASGYTFTNYGLTWVRQAPGKGLEWIGWISPYTGRAKFALKFQGRFTLTTDTSTTTAYMEVRSLKSDDSAVYYCAREGIKDASAFDFWGQGTLVTVSS
VL: QSALTQPASVSGSPGQSITISCTGTGSDIGGYNHVSWYHHYPGKAPKLLIFGVTHRPSGVSDRFSGSKSGVTAFLTISGLQAEDEADYYCSSYTDNTSWVFGGGTKVTVL
B9: STAU-399 (antibody, V domains shown)
VH: QVQLVQSGAEVKKPGSSLKVSCKVSGGNLRSYGISWVRQAPGQGLEWMGVIIPIFGTPTYAQKFQGRVTLAADDSNNIVFMELSSLRSEDTAVYYCARDWPSITVAVDATNYGMDVWGQGTLVTVSS
VL: QSALTQPRSVSGSPGQSVTISCTGTSNDVGYYDHVSWYQQHPGKAPKFIIYDVSKRPSGVPDRFSGSKSDNTASLTISGLQAEDEADYYCCSFAGSYTYVFGTGTKVTVL
B10: STAU-299 (antibody, V domains shown)
VH: QVTLRESGPALVKPTETVTLTCTFSGFSLSTSGMCVTWLRQPPGKALEWLALIDWEDDKYYSTSLKTRFTISKDTSKNQVVLTMTNMDPVDTATYYCARTPTYRGAFDMWGQGTLVTVSS
VL: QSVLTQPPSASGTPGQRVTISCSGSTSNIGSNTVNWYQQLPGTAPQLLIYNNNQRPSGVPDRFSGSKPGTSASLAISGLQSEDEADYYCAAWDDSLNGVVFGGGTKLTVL
B11: STAU-280 (antibody, V domains shown)
VH: EVQLVESGGGLVQTGGSLRLSCAASGFTFSRYNMNWVRQAPGKGLEWVSFISATSSSIYYADSVKGRFTISRDNAKNSLDLQMNSLRDEDTAVYFCVREDAAIFGVGSWFDPWGQGTLVTVSS
VL: EIVMTQSPATLSVSPGERATLSCRASQSVSSNLAWYQQKPGQAPRLLIYGASTRATGIPARFSGSGSGTEFTLTISSLQSEDFAVYFCQEYNDWPLYTFGQGTKLEIK
B12: STAU-229 (antibody, V domains shown)
VH: EVQLVQSGAEVKKPGATMKISCKVSGYPFTDYYMHWVQQAPGKGLEWMGLIDPEDGETNYAEKFQGRVTITADTSTDTVYMELSSLRSEDTAVYFCAKPHCSSRTCQRVSGYYFGMDVWGQGTLVTVSS
VL: QSALTQPPSASGSPGQSVTISCTGSSNDVGDYNFVSWYQQHPGKPPKLMIYEVTKRPSGVPDRFFGSKSGNTASLTVSGLQADDEADYYCSSYAGGNSVVFGGGTKLTVL
B13: STAU-281 (antibody, V domains shown)
VH: QVQLVQSGAEVKRPGSSVRVSCKDSGDSFRRYVINWVRQAPGQGLEWMGGIIPIFDKAKSVQKFQDRLTITADESTSTSYMELSSLTSEDTAVYYCARKEDGRRDDVFDIWGQGTLVTVSS
VL: EIVMTQSPATLSVSLGERATLSCRASHSVGSSLAWYQQKPGLAPRLLIYGVSTRATGIPARFSGSGSATEFTLTISSLQSEDLAAYHCQQYDNWPFTFGQGTKLEIK
B14: STAU-64 (antibody, V domains shown)
VH: EVQLVESGGGLVKPGGSLRLSCAASGFSFSYYSMNWVRQAPGKGLEWISSISSSGEYIYYADSVKGRFTISRDNAENSLYLQMNSLRAEDTAVYYCAKVVSQQSLDYWGQGTLVTVSS
VL: DIVMTQSPSSLSVSVGDRVTITCRASQSISTYLNWYQQKPGKAPKLLISGGSNLQSGVPSRFSGSGSGTDFTLTIISLQPEDFATYYCQQSYSTRYSFGQGTKLEIK
B15: STAU-328 (antibody, V domains shown)
VH: QVQLQQWGAGLLKPSETLSLTCAVYGGSFSGYYWSWIRQPPGKGLEWIGEINHSGSTNYNPSLKSRVTISVDTSKNQFSLKLSSVTAADTAVYYCARDVGDRYYFDYWGQGTLVTVSS
VL: QSALTQPASVSGSPGQSITISCTGTSSDVGSYNLVSWYQQHPGKAPKLMIYEGSKRPSGVSNRFSGSKSGNTASLTISGLQAEDEADYYCCSYAGSSTFVVFGGGTKLTVL
B16: STAU-389 (antibody, V domains shown)
VH: B9 VH with K13Q, P14S, T57A, L70F, A71V, S75G, I78V, T110I, Y112F, G113A
VL: B9 VL with S26N, Y31S, K55T, K106T
B17: STAU-139 (antibody, V domains shown)
VH: EVQLVQSGAEVKKPGESLKISCKGSGYSFTSYWIGWVRQMPGKGLEWMGIIYPGDSDTRYSPSFQGQVTISADKSISTAYLQWSSLKASDTAMYYCARPPGLRGDAFDIWGQGTLVTVSS
VL: QSALTQPPSASGSPGQSVTISCTGTSSDVGGYNYVSWYQQHPGKAPKLMIYEVSKRPSGVPDRFSGSKSGNTASLTVSGLQAEDEADYYCSSYAGSNNLVFGGGTKLTVL

Molecular target: T1, IsdA (iron-regulated surface determinant protein A), recombinant (Staphylococcus aureus, UniProt P0C1S5 58-316)
T1 construct: also called recombinant IsdA; Isd antigen
T1 chain: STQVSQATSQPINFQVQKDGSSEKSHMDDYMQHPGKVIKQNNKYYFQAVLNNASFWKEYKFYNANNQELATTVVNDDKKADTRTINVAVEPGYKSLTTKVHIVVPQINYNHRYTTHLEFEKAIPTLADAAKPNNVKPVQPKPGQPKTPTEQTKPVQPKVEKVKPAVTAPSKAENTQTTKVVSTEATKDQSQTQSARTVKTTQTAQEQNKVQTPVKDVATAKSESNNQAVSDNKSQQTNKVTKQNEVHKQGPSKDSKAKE
Experiment: ELISA on coated recombinant antigen, half-maximal binding

Binder	EC50 [ng/mL]
B1	8200
B2	25100
B3	80
B4	10
B5	70
B6	1600
B7	30
B8	260
B9	8700
B10	220
B11	52100
B12	700

Molecular target: T2, IsdB (iron-regulated surface determinant protein B), recombinant (Staphylococcus aureus, UniProt A6QG30 41-609)
T2 construct: also called recombinant IsdB
T2 sequence (A6QG30 41-609 limits assumed): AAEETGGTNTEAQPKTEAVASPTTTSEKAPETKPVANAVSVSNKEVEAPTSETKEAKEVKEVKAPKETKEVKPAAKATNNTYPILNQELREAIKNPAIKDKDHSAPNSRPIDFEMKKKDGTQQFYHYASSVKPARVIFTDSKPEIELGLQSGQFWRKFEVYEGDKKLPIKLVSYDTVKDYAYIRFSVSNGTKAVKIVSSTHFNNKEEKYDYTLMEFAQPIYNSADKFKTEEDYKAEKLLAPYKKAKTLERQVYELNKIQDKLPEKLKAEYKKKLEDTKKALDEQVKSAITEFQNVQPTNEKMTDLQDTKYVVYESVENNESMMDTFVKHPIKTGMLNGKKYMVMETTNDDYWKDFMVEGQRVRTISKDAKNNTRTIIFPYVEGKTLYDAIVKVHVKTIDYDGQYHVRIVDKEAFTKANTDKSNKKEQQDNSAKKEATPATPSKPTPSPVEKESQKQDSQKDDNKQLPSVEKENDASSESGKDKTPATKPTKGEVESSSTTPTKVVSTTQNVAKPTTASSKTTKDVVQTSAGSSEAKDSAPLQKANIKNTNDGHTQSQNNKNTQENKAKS
Experiment: as above

Binder	EC50 [ng/mL]
B1	3400
B2	3700
B13	2
B3	4100
B14	140
B15	80
B4	0.28
B5	1
B7	1900
B8	9500
B16	130
B9	530
B10	12700
B11	7600
B12	10

Molecular target: T3, IsdH (iron-regulated surface determinant protein H), recombinant (Staphylococcus aureus)
T3 construct: also called recombinant IsdH
T3 sequence (Q2FG07 41-864): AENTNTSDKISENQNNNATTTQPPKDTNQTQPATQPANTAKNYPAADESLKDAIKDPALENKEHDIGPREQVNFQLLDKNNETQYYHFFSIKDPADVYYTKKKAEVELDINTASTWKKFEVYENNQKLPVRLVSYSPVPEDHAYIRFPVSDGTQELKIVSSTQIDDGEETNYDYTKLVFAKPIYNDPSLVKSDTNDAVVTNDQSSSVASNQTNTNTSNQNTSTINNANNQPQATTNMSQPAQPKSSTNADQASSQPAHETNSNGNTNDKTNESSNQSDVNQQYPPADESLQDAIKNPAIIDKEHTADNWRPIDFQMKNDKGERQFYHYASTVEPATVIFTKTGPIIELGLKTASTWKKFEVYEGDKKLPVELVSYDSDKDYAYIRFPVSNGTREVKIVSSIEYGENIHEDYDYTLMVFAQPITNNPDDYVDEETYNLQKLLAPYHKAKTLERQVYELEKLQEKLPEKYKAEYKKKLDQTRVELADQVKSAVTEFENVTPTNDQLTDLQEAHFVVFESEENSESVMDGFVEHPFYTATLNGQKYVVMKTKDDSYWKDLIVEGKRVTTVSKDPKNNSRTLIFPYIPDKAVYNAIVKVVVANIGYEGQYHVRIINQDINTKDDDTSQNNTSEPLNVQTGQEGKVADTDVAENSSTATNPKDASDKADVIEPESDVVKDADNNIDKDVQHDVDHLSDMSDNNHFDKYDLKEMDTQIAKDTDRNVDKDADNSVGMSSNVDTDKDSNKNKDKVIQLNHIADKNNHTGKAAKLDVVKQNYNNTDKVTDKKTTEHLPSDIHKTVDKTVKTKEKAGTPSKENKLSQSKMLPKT
Experiment: as above

Binder	EC50 [ng/mL]
B17	2700
B13	2.7
B15	60
B4	0.01
B6	3100
B16	340
B9	950
